Patent US20210269549A1, “ANTI-SAS1B ANTIBODIES, ASSOCIATED METHODS OF USE, AND COMPOSITIONS AND METHODS FOR DETECTING AND TREATING CANCER” (UNIVERSITY OF VIRGINIA PATENT FOUNDATION, priority 2015, published 2021)

Experiments:
[1] = target: T1, human SAS1B protein with a C-terminal V5 tag expressed by HEK293T cells (Homo sapiens, UniProt Q6HA08); assay: Double immunofluorescence on fixed and permeabilized HEK293T cells transfected with SAS1B SV-A with V5 tag; assay type: cell-based
T1 construct: expressed in transfected cells; host or cells: HEK293T
T1 sequence (Q6HA08 24-431): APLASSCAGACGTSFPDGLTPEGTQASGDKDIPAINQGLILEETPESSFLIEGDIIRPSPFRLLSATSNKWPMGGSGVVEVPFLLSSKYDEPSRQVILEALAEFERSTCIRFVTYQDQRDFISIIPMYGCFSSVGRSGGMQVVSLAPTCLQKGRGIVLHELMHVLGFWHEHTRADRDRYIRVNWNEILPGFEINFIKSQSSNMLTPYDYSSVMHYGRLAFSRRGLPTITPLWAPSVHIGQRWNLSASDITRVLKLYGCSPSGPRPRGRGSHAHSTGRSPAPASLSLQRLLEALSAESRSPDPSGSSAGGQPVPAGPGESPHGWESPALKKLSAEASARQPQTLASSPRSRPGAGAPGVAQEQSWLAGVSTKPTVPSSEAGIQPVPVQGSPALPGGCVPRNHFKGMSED
Experimental: Experiments were conducted to determine the specificity of anti-human SAS1B monoclonal antibodies SB1, SB2, SB3, SB4, SB5, SB6 and SB7 against the human SAS1B protein with a C-terminal V5 tag expressed by HEK293T cells by double immuno-fluorescence from two different SAS1B epitopes. HEK293T cells were seeded at ˜100,000 per well of a 24 well plate containing a lysine-coated 12 mm coverslip. 24 hours later, the cells were transfected with 1 ug of SV-A plasmid with 2 ul of TURBOFECT® transfection reagent followed by no change of media. 48 h later the cells were PFA (paraformaldehyde) fixed and methanol permeabilized for an IF study as follows.
The cells were removed from cell culture media and fixed in 4% PFA in PBS, 300 ul for 15 min. The cells were washed in 1 ml PBS in wells for 3 times and permeabilized in methanol (100%) for 15 min in 0.5 ml at RT. The cells were washed in PBS 1 ml for 3 times and blocked in complete culture media (DMEM) with 5% normal goat serum (NGS) for 30 min (i.e. BB, blocking buffer). The first antibody in BB was added for 1 h at 10 ug/ml for mouse monoclonal antibodies (SB1, SB2, SB3, SB4, SB5, SB6, SB7) and 5 ug/ml for anti-V5 DYLIGHT® 488 (green) rabbit (a rabbit polyclonal antibody to V5 tag). The cells were washed in PBS 3 times. The second antibody in BB (Goat anti-mouse Alexa Flour 594, red) was added for 1 h at 5 ug/ml (1:200 dilution). The cells were washed in PBS 3 times. The cells were mounted in slow fade DAPI 3 ul and stored at 4° C. before confocal imaging.

[2] = tested on: M1 (renal cancer cell line); assay: Live cell surface indirect immunofluorescence, M1; assay type: cell-based; details: live cells on ice; two cancer cell lines (M1, MMMT539)
Experimental: Anti-Human SAS1B mouse monoclonal antibodies reactive to SAS1B epitope on live cancer cell surfaces were identified by indirect immuno-fluorescence (IF) for the development of therapeutic antibodies. M1 (renal cancer cell line) and MMMT539 (uterine cancer cell line) cells were seeded at 20,000 cells in 1 ml per well on collagen coated coverslips in 24 well plates. The media was replaced 22 h post seeding. For antibody probing, cells were kept on ice for ˜8 to 18 min following 47 h post-seeding. The first antibody was added at 10 ug/ml, 20 ug/ml or 50 ug/ml in complete culture media with 15 mM NaN3 (pre-chilled), incubated on ice for 60 min, and the cells washed in complete culture media with 15 mM NaN3 in cold 1 ml, ×3. The second antibody, goat-antimouse-AF488 (pre-chilled), was added to the wells at 5 ug/ml in complete culture media with 15 mM NaN3 for 60 min on ice. The cells were washed in complete media with 15 mM NaN3, 1 ml, ×3 on ice. The cells were fixed in 4% PFA in PBS for 20 minutes on ice. The cells were washed in distilled water at RT, 1 ml, ×1 and mounted in 8 ul of SLOWFADE® Diamond Antifade Mountant with DAPI. An anti-EGFR monoclonal antibody was used as a positive control on live M1 cells. Epidermal growth factor receptor (EGFR) is a transmembrane glycoprotein and member of protein kinase superfamily. […] Anti-human CABYR monoclonal antibody 3A4 was used as a negative control on live MMMT539 cells. CABYR is a calcium binding cytoskeleton sperm protein with no transmembrane domain.

[3] = tested on: human uterine cancer cells; assay: ADC assay on human uterine cancer cells using Fab-anti-mouse IgG Fc (Duocarmycin DM conjugated or unconjugated); assay type: cell-based; details: for Cytotoxic effect: 4 days
Experimental: The cytotoxic effect of anti-human SAS1B monoclonal antibodies SB1, SB3 and SB4 on human uterine cancer cells was investigated by ADC assay using Fab-anti-mouse IgG Fc conjugated to Duocarmycin DM with a cleavable linker. An average of 3 experiments were done in triplicate. […] At 0.01 nM the viability was only 40% compared to ˜80% viability for SB4 mAb.
The cytotoxic effect of anti-human SAS1B mAbs SB1, SB2, SB3, SB4 and SB5 on human uterine cancer cells by ADC assay using unconjugated Fab-anti-mouse IgG Fc was examined. An average of 1 or 2 experiments in triplicate were performed. […] See FIGS. 10A-B. The cytotoxic effect of anti-human SAS1B mAbs SB1, SB2, SB3, SB4, and SB5 was tested on human uterine cancer cells by ADC assay using Fab-anti-mouse IgG Fc conjugated to Duocarmycin DM with cleavable linker. An average of 3 experiments were completed in triplicate. […] At 0.01 nM the viability for SB3, SB2, SB4 and SB5 were 42%, 66%, 80% and 87% respectively.

[4] = target: T2, SAS1B extracellular domain (aa 164-431) polypeptide (Homo sapiens, UniProt Q6HA08); assay: Western blot with mammalian cell-expressed recombinant SAS1B, extracellular domain; assay type: binding
T2 construct: SAS1B extracellular domain (aa 164-431) polypeptide; made in house
T2 sequence (Q6HA08 164-431): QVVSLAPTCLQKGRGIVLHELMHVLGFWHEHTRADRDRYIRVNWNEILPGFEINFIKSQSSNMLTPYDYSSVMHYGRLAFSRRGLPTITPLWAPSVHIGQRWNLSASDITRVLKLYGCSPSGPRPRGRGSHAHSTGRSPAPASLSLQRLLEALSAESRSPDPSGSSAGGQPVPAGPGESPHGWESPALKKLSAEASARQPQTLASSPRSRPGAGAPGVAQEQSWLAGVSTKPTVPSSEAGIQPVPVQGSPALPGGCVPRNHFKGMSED
Experimental: SAS1B monoclonal antibodies were analyzed with mammalian cell-expressed recombinant SAS1B by western blotting.

B1: SB1: mouse anti-SAS1B monoclonal antibody, IgG2a; VH SEQ ID NO:12, VL SEQ ID NO:13 (antibody, listed as Mus musculus, V domains shown)
VH: EVQLQQSGPELVKPGSSVKISCKASGYTFTDYNMDWVKQSHGKSLEWIGAINPNNGGTSYNQKFKGKATLTVDKSSSTAYMELRSLTSEDSAVYYCATNEYWGQGTTLTVSS
VL: NIVMTQSPKSMSMSVGERVTLSCKASENVGTYVSWYQQKPEQSPKLLIYGASNRYTGVPDRFTGSGSATDFTLTISSVQAEDLADYHCGQSYSYPWTFGGGTKLEIK
IF signal / colocalization with V5-tag epitope signal ([1]; SV-A transfected HEK293T, PFA fixed, methanol permeabilized, mAbs at 10 ug/ml): lack of a signal
Signal on mock transfected HEK293T cells ([1]; mock transfected): no V5 signal or SAS1B signal
Surface labelling of live cancer cells [2]: labelled the surface
Cytotoxic effect ([3]; Fab-anti-mouse IgG Fc conjugated to Duocarmycin DM with cleavable linker): no cytotoxic effect
Cytotoxic effect ([3]; isotype-specific unconjugated Fab): no cytotoxic effect
Cell killing effects as antibody-duocarmycin conjugates on SAS1B+ human tumor cells (FIG. 28) ([3]; uterine tumor cells in vitro): no cytotoxic effects
Reaction with SAS1B extracellular domain (aa 164-431) polypeptide [4]: none of the them reacted
